Test results from US20120225828A1.
Values belong to the binder of their own block, whether it stands above or below them. Bridge positions count the residues as written; N and C are the ends. Square brackets hold non-standard residues; d marks the D form. Nle = CCCC[C@H](N)C(=O)O; Dab = NCC[C@H](N)C(=O)O

What was measured:
[1] = biological target: recombinant human melanocortin-4 receptor hMCR-4 (human) (UniProt P32245); test: competition with [I125]-NDP-α-MSH; HEK-293 hMCR-4 membrane homogenates
Chain of recombinant human melanocortin-4 receptor hMCR-4 (human) (P32245 whole entry): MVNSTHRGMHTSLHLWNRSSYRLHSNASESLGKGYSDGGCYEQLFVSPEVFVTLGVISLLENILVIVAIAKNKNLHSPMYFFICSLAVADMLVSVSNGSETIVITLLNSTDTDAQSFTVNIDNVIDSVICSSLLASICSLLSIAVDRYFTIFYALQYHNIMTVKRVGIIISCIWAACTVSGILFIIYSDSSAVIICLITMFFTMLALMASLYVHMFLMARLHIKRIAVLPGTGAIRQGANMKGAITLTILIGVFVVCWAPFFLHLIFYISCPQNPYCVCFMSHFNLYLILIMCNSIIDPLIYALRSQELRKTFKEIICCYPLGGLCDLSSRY

[2] = biological target: recombinant human melanocortin-1 receptor hMCR-1a (human) (UniProt Q01726); test: competition with [I125]-NDP-α-MSH; HEK-293 hMCR-1a membrane homogenates
Chain of recombinant human melanocortin-1 receptor hMCR-1a (human) (Q01726 whole entry): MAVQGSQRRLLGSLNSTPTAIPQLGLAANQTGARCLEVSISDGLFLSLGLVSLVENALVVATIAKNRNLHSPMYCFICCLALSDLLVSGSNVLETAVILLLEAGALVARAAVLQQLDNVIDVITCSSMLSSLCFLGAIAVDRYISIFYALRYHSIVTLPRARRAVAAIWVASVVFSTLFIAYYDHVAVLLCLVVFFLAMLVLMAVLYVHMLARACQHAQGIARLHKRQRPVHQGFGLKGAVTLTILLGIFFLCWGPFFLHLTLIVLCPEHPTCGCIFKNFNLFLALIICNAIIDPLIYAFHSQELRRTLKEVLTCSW

B1: Ac-Nle-cyclo(Glu-His-D-Phe-Gly-Dab)-Trp-NH2 (SEQ ID NO: 50) (peptide)
peptide: Ac-[Nle]EH[dF]G[Dab]W-NH2
modifications: lactam 2-6
SMILES: CCCC[C@H](NC(C)=O)C(=O)N[C@H]1CCC(=O)NCC[C@@H](C(=O)N[C@@H](Cc2c[nH]c3ccccc23)C(N)=O)NC(=O)CNC(=O)[C@@H](Cc2ccccc2)NC(=O)[C@H](Cc2c[nH]cn2)NC1=O
Ki [1]: 10000 nM | Ki [2]: 9 nM

B3: Ac-Nle-cyclo(Glu-His-D-Phe-Ala-Dab)-Trp-NH2 (peptide)
peptide: Ac-[Nle]EH[dF]A[Dab]W-NH2
modifications: lactam 2-6
SMILES: CCCC[C@H](NC(C)=O)C(=O)N[C@H]1CCC(=O)NCC[C@@H](C(=O)N[C@@H](Cc2c[nH]c3ccccc23)C(N)=O)NC(=O)[C@H](C)NC(=O)[C@@H](Cc2ccccc2)NC(=O)[C@H](Cc2c[nH]cn2)NC1=O
Ki [2]: 0.08 nM

Continued by falling Ki [2], values first:

Ki [1]: 7380 nM | Ki [2]: 2 nM
B4: Ac-Nle-cyclo(Glu-His-D-Phe-Arg-Dab)-Lys-NH2 (SEQ ID NO: 55) (peptide)
peptide: Ac-[Nle]EH[dF]R[Dab]K-NH2
modifications: lactam 2-6
SMILES: CCCC[C@H](NC(C)=O)C(=O)N[C@H]1CCC(=O)NCC[C@@H](C(=O)N[C@@H](CCCCN)C(N)=O)NC(=O)[C@H](CCCNC(=N)N)NC(=O)[C@@H](Cc2ccccc2)NC(=O)[C@H](Cc2c[nH]cn2)NC1=O

Ki [1]: 10000 nM | Ki [2]: 0.08 nM
B2: Ac-Nle-cyclo(Glu-His-D-Phe-Ala-Dab)-Trp-NH2 (SEQ ID NO: 51) (peptide)
peptide: Ac-[Nle]EH[dF]A[Dab]W-NH2
modifications: lactam 2-6
SMILES: CCCC[C@H](NC(C)=O)C(=O)N[C@H]1CCC(=O)NCC[C@@H](C(=O)N[C@@H](Cc2c[nH]c3ccccc23)C(N)=O)NC(=O)[C@H](C)NC(=O)[C@@H](Cc2ccccc2)NC(=O)[C@H](Cc2c[nH]cn2)NC1=O
